Measured values taken from article PMC2901514 (The Febs Journal, 2010).

Biological target: the molecule itself
Experiment: SEC

B1: CMP-Neu5Ac synthetase (CNS) from Neisseria meningitidis, K142A mutant (enzyme)
chain: MEKQNIAVILARQNSKGLPLKNLRKMNGISLLGHTINAAISSKCFDRIIVSTDGGLIAEEAKNFGVEVVLRPAELASDTASSISGVIHALETIGSNSGTVTLLQPTSPLRTGAHIREAFSLFDEKIKGSVVSACPMEHHPLATLLQINNGEYAPMRHLSDLEQPRQQLPQAFRPNGAIYINDTASLIANNCFFIAPTKLYIMSHQDSIDIDTELDLQQAENILNHKES
  stoichiometry N: 2
